Results taken from PMC5640805.

Key:
[1] = target: CRF250 SOSIP.664 trimer (HIV-1 (isolate CRF-T250-4)); test: negative-stain EM; PGT145-purified SOSIPs; class averages
[2] = target: CRF250 SOSIP.664 trimer (HIV-1 (isolate CRF-T250-4)); test: SEC; PGT145-affinity-purified SOSIPs on a Superdex 200 10-300 GL column in PBS
[3] = target: MGRM8 SOSIP.664 trimer (HIV-1 (isolate MGRM_AG_002_8)); test: negative-stain EM; PGT145-purified SOSIPs; class averages
[4] = target: MGRM8 SOSIP.664 trimer (HIV-1 (isolate MGRM_AG_002_8)); test: SEC; PGT145-affinity-purified SOSIPs on a Superdex 200 10-300 GL column in PBS
[5] = target: C108 SOSIP.664 trimer (HIV-1 (isolate C108.c03)); test: negative-stain EM; PGT145-purified SOSIPs; class averages
[6] = target: C108 SOSIP.664 trimer (HIV-1 (isolate C108.c03)); test: SEC; PGT145-affinity-purified SOSIPs on a Superdex 200 10-300 GL column in PBS
[7] = target: WITO SOSIP.664 trimer (HIV-1 (isolate WITO4160.33)); test: negative-stain EM; PGT145-purified SOSIPs; class averages
[8] = target: WITO SOSIP.664 trimer (HIV-1 (isolate WITO4160.33)); test: SEC; PGT145-affinity-purified SOSIPs on a Superdex 200 10-300 GL column in PBS

CRF250 SOSIP.664 trimer (complex)
stoichiometry N [1]: 3 | stoichiometry N [2]: 3

MGRM8 SOSIP.664 trimer (complex)
stoichiometry N [3]: 3 | stoichiometry N [4]: 3

C108 SOSIP.664 trimer (complex)
stoichiometry N [5]: 3 | stoichiometry N [6]: 3

WITO SOSIP.664 trimer (complex)
stoichiometry N [7]: 3 | stoichiometry N [8]: 3
